Laboratory results reported in publication PMC11667672.

How the values were obtained:
[1] = biological target: T1, His41 (UniProt position 3304, VYCPRHVICTS); experiment: kinetics; details: 150 mM NaCl in constant-ionic-strength mixed buffers
[2] = biological target: T2, Cys145 (UniProt position 3408, FLNGSCGSVGF); experiment: kinetics; details: 150 mM NaCl in constant-ionic-strength mixed buffers
[3] = biological target: T1, His41; experiment: chemical modification; details: preincubation with DEPC on ice for 10-60 s; residual activity assay temperature per Table 1 footnote 25 °C; 150 mM NaCl in constant-ionic-strength mixed buffers; free enzyme (apo), 2 µM
[4] = biological target: T2, Cys145; experiment: chemical modification; details: preincubation with IAM on ice; residual activity assayed at 25 °C (Table 1 footnote says 25 °C); 150 mM NaCl in constant-ionic-strength mixed buffers; free enzyme (apo), 2 µM
[5] = biological target: Cys145 (UniProt position 3385, FLNGSCGSVGF); experiment: chemical modification; details: cited from earlier work
[6] = 25 °C (Table 1 footnote), apo (free) enzyme
[7] = 25 °C, free enzyme (kcat/Ka reports on free enzyme and free substrate)
[8] = 25 °C, free enzyme binding the inhibitor

Substance | pKa [1, 6] | pKa [1, 7] | pKa [1, 8] | pKa ([1]; 25 °C, free enzyme in D2O) | pKa [2, 6] | pKa [2, 7] | pKa [2, 8] | pKa ([2]; 25 °C, free enzyme in D2O) | pKa [3] | pKa [4] | pKa [5]
3-chymotrypsin-like protease (3CL-PR; Main protease, Mpro, nsp5) (Severe acute respiratory syndrome coronavirus 2 (SARS-CoV-2)) | 6.2 ± 0.3 | 5.9 ± 0.1 | 6.5 ± 0.2 | 6.10 ± 0.07 | 8.2 ± 0.4 | 8.39 ± 0.07 | 8.5 ± 0.1 | 9.06 ± 0.06 | 6.05 ± 0.07 | 7.8 ± 0.1 | 
3-chymotrypsin-like protease (3CLpro, Main protease, nsp5) (Severe acute respiratory syndrome coronavirus (SARS-CoV)) |  |  |  |  |  |  |  |  |  |  | 7.8 ± 0.1
